Reference: patent publication US20130035289A1, “PHARMACEUTICAL COMPOSITION FOR TREATMENT OF THROMBOSIS-RELATED DISEASES COMPRISING A FRAGMENT OF PROLACTIN (PRL)-GROWTH HORMONE (GH)-PLACENTAL LACTOGEN (PL)-FAMILY PROTEIN” (UNIVERSITE DE LIEGE, priority 2010, published 2013)

What was measured:
[1] = system: NF-κB; test: NF-κB p65 DNA-binding activity in HUVECs; assay type: cell-based, human; details: 16K PRL 50 nM 1 h
Procedure: HUVECs were incubated for 2 h with 16K PRL and immunostained for uPA (red) or 16K PRL (green) and nuclei (DAPI, blue). Bottom panels: co-localization of PAI-1 and 16K PRL. To visualize added PAI-1 and not endogenous PAI-1, cells were incubated with His-tag PAI-1 and 16K PRL and stained for PAI-1 (red), 16K PRL (green), and nuclei (DAPI, blue). (B) Schematic outline of the proximity ligation assay (PLA) strategy showing primary antibody from different species for uPA and 16K PRL. Juxtaposition of secondary, oligonucleotide ligated antibodies allows a rolling circle amplification detected by a cy3-probe. (C) Detection of uPA/16K PRL complexes (red spots) on HUVECs by PLA. […]
HUVECs were pre-treated with a blocking uPAR Ab 3 μg/ml (R&D system) or control IgG (SantaCruz) for 1 h and then incubated for 1 h with 16K PRL (50 nM). The p65 DNA-binding activity of NF-κB was quantified by ELISA (EZ Transcription Factor kit NF-κB p65 (Pierce)) according to the manufacturer's instructions on total protein extracts. Protein concentrations were determined by the […] using the BCA protein assay reagent (Pierce). NF-κB binding to the target oligonucleotide was detected by incubation with primary antibody specific for the activated form of p65, visualized by anti-IgG horseradish peroxidase conjugate and developing solution. Chemiluminescence was quantified with a luminometer.

[2] = molecular target: T1, PAI-1 (Homo sapiens, UniProt P05121); test: Immunofluorescence staining on HUVEC, co-localization with His-tag PAI-1; assay type: cell-based; details: HUVECs, PAI-1 added to the medium with 16K PRL
T1 construct: gift of Pr; P. Declerck
Procedure: HUVECs were grown to 70% confluence on gelatin-coated 35-mm dishes. After incubation for 3 h with 14K GH (160 ng/ml) or 16K PRL (160 ng/ml), the cells were washed with PBS at room temperature and incubated for 1 h at room temperature under non-permeabilization conditions with mouse anti uPA (American Diagnostica INC) diluted 1/100, rabbit anti prolactin (Dako) diluted 1/100, or rabbit anti human GH (home made) diluted 1/100. Endothelial cells were washed in PBS and incubated with FITC horse anti mouse (Vector Laboratory) and Texas red goat anti rabbit antibodies (Jackson Laboratory). For PAI-1 staining, the cells were incubated simultaneously with Histag PAI-1 at 800 uM and 16K PRL or 14K GH. […] Cryostat tumor sections (5 μm thick) were fixed in acetone at −20° C. and in 100% methanol at 4° C. and then incubated with the primary antibodies, rat monoclonal anti PECAM-1, and rabbit polyclonal anti-prolactin (DAKO) for 1 hour at room temperature. The slides were washed and incubated with a Cy3 goat anti-rat and an FITC goat anti-rabbit antibody. After 3 washes in PBS for 10 min, the slides were covered with coverslips in mounting medium (Victor Laboratories Inc.) and analyzed by fluorescence microscopy.

T1 sequence (P05121 24-402): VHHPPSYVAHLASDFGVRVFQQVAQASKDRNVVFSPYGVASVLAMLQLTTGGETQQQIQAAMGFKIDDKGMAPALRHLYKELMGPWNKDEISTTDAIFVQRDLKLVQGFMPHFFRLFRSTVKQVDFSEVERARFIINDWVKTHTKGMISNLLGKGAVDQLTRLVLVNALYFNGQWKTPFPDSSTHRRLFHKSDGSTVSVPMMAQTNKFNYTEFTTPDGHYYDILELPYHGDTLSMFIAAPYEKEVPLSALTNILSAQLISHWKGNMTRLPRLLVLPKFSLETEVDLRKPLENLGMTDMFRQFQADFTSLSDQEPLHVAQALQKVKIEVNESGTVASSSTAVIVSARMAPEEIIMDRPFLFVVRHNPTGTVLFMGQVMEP

B1: 16K hPRL: 16K N-terminal human prolactin fragment, recombinant, produced and purified from E. coli (protein)
chain: LPICPGGAARCQVTLRDLFDRAVVLSHYIHNLSSEMFSEFDKRYTHGRGFITKAINSCHTSSLATPEDKEQAQQMNQKDFLSLIVSILRSWNEPLYHLVTEVRGMQEAPEAILSKAVEIEEQTKRLLEGMELIVSQVHP
- 16K PRL-induced NF-κB signaling ([1]; blocking uPAR antibody pre-treatment 1 h): disrupts
- 16K PRL response (NF-κB activity), requirement of uPA ([1]; pre-treatment with ATF of uPA): required
- co-localization with PAI-1 [2]: co-localization of 16K PRL and PAI-1 was observed
